Molecular target: anti-TSLP-scFv-Fc-M4 (mutated recombinant antibody) (human)
Assay: BLI

thymic stromal lymphopoietin (TSLP), standard recombinant human TSLP protein (from UniProt Q969D9 29-159) (ligand)
fold change of affinity against scFv-Fc-84: 10 fold
